Results from US20080057516A1 (published 2008).

B1: Artemin (ARTN) (ligand, UniProt Q5T4W7 108-220, looked up)
chain: AGGPGSRARAAGARGCRLRSQLVPVRALGLGHRSDELVRFRFCSGSCRRARSPHDLSLASLLGAGALRPPPGSRPVSQPCCRPTRYEAVSFMDVNSTWRTVDRLSATACGCLG
B2: Glial cell line-derived neurotrophic factor (GDNF) (ligand, UniProt P39905 78-211, looked up)
chain: SPDKQMAVLPRRERNRQAAAANPENSRGKGRRGQRGKNRGCVLTAIHLNVTDLGLGYETKEELIFRYCSGSCDAAETTYDKILKNLSRNRRLVSDKVGQACCRPIAFDDDLSFLDDNLVYHILRKHSAKRCGCI
notes: Immobilised on an aminosilane cuvette for SPR, or coated on plastic, glass or filters for the cell assays; also called wtGDNF; unlabeled (Cold) GDNF
B3: Persephin (PSPN) (ligand, UniProt O60542 61-156, looked up)
chain: ALSGPCQLWSLTLSVAELGLGYASEEKVIFRYCAGSCPRGARTQHGLALARLQGQGRAHGGPCCRPTRYTDVAFLDDRHRWQRLPQLSAAACGCGG
B4: Neurturin (NRTN) (ligand, UniProt Q99748 96-197, looked up)
chain: ARLGARPCGLRELEVRVSELGLGYASDETVLFRYCAGACEAAARVYDLGLRRLRQRRRLRRERVRAQPCCRPTAYEDEVSFLDAHSRYHTVHELSARECACV

How the values were obtained:
[1] = target: T1, Syndecan-3 ectodomain purified from early postnatal rat brain (rat, UniProt P33671 45-387, carries natural heparan sulfate (HS) side chains; attachment residues not stated); test: SPR (IAsys optical biosensor): ARTN immobilized on the aminosilane cuvette, syndecan-3 ectodomain (S3) in solution at 0 to about 95 nM. Kd from the equilibrium response (insert of the ARTN panel)
T1 construct: extracellular domain; Native proteoglycan; also called S3; extracellular domain of syndecan-3
Procedure: (§1) The affinities of GFLs for heparin and heparin-like molecules (e.g. syndecan-3) were determined by plasmon surface resonance using the IAsys system (Affinity Sensors, Cambridge, UK). Planar aminosilane cuvettes (Affinity Sensors) were used for protein coupling to avoid problems with mass transport, which occur frequently with matrix surfaces. In the initial approach, heparin-BSA was immobilized to the cuvette surface using the manufacturer's instructions and different ligand concentrations were used to determine association (kₐ) and dissociation (kdis) rates using the IAsys Fastfit software. The dissociation constant Kd was determined from the binding dynamics as […], or from equilibrium response (R) using a simple Langmuir fit: R=(Rₘₐₓ*C)/(Kd+C), where C is the ligand concentration. […] The dissociation constants were determined from binding dynamics and equilibrium response. The same cuvettes were used to test binding of heparan sulfate proteoglycan syndecan-3, which was purified as an ectodomain from early postnatal rat brains by HB-GAM affinity chromatography (Raulo et al., 1994).

[2] = target: T1, Syndecan-3 ectodomain purified from …; test: SPR (IAsys), GFL immobilised on aminosilane cuvette, syndecan-3 ectodomain in solution
Procedure: as §1
(§2) Binding was analyzed using IAsys cuvettes with immobilized heparin-BSA or GFLs. The dissociation constant Kd was determined from dynamics of association and dissociation (Kd=kdis/kₐ), or from equilibrium response R (R=(Rₘₐₓ*C)/(Kd+C), where C is ligand concentration).

[3] = target: T1, Syndecan-3 ectodomain purified from …; test: SPR (IAsys), GFL immobilised, syndecan-3 ectodomain in solution; Kd = kdis/ka
Procedure: as §1, §2

[4] = target: T1, Syndecan-3 ectodomain purified from …; test: SPR (IAsys), GFL immobilised, syndecan-3 ectodomain in solution; equilibrium response
Procedure: as §1, §2

[5] = target: T1, Syndecan-3 ectodomain purified from …; test: SPR (IAsys), GFL immobilised, syndecan-3 ectodomain in solution; equilibrium response; equilibrium response only; syndecan-3 concentrations limiting, dynamics could not be fit

T1 sequence (P33671 45-387): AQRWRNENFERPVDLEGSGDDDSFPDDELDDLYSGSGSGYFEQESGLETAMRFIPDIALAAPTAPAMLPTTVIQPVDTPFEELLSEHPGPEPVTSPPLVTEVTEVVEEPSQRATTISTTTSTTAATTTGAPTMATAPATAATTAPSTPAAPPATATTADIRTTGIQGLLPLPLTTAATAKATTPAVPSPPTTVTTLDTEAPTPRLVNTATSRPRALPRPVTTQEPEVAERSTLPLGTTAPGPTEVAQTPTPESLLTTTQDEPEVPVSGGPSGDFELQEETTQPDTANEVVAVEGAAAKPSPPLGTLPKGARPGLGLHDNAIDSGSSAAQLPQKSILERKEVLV

Binder | Kd [1] | koff [2] | kon [2] | Kd [3] | Kd [4] | Kd [5]
B1 | 0.0211 µM | 0.034 s⁻¹ | 630000 M⁻¹ s⁻¹ | 0.0539 µM | 0.0212 µM | –
B2 | – | 0.015 s⁻¹ | 1.3e+06 M⁻¹ s⁻¹ | 0.0115 µM | 0.012 µM | –
B3 | – | – | – | – | – | > 0.07 µM
B4 | – | 0.021 s⁻¹ | 750000 M⁻¹ s⁻¹ | 0.0263 µM | 0.0285 µM | –
